The nanobody polyreactivity screen of Harvey et al. (2022)

Assay: yeast display, Sf9 membrane polyspecificity reagent, FACS + sequencing; frameworks hold sequencing errors
In short: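 A nanobody's polyreactivity label depends on the gate it was sorted from. Yeast display cells were stained with 10% biotinylated, detergent-solubilized Sf9 membrane reagent for 1 hour at 4 °C, enriched on streptavidin microbeads and sorted by FACS. The low and high (top ~1%) gates were set on anti-HA fluorescence for expression and streptavidin fluorescence for reagent binding.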

Sequence | polyreactivity (PSR sort gate)
QVQLEESGGGLVQAGGTLRLSCAASGIIFDGNAMVWYRQAPGKERELVASITSDSSTNYADSVKGRFTISRDNAKNTVYLQMNSLKPEDTAVYYCAADHWIAPRRDYWGQGSQVTVSS | low polyreactivity
QVQLVESGGGLVQAGGSLRLSCAASGRTFEKYVMGWYRQAPGKERELVASISKRGGSTYYADSVKGRFTISRDNAKNTVYLQMNSLKPEDTAVYYCNKDSRASPYGYWGQGTQVTVSS | high polyreactivity
QVQLVESGGGLVQAGGSLRLSCAASGIIFPYYAMGWYRQAPGKERELVAAISSRDGRTYYADSVKGRFTISRDNAKNTVYLQMNSLKPEDTAVYYCAARAVGGVRGYRYDYWGQGTQVTVSS | high polyreactivity
QVQLVESGGGLVQAGGSLRLSCAASGIIFKYYAMGWYRQAPGKERELVAAITWSDTRTYYADSVKGRFTISRDNAMNTVYLQMNSLKPEDTAVYYCAVDEPSLYSWGGGYYWGQGTQVTVSS | high polyreactivity
QVQLVESGGGLVQAGGSLRLSCAASGIIFYAYAMGWYRQAPGKERELVARISRGGSTNYADSVKGRFTISRDNAKNTFYLQMNSLKPEDTAVYYCAAYYAYLRYGGLYEYWGQGTQVTVSS | high polyreactivity
QVQLVESGGGLVQAGGSLRLSCAASGSTFVRNAMGWYRQAPGKERELVAAITSSGGSTYYADSVKGRFTISRDNAKNTVYLQMNSLKPEDTAVYYCAKRRYYRYDYWGQGTQVTVSS | low polyreactivity
QVQLVESGGGLVQAGGSLRLSCAASGRTFAYNAMGWYRQAPGKERELVAAITRRGGSTYYADSVKGRFTISRDNAKITVYLQMNSLKPEDTAVYYCDARWVTTVQGDGRYDYWGQGTQVTVSS | low polyreactivity
QVQLVESGGGLVQAGGSLRVSCAASGRTFIKYAMGWYRQAPGKERELVAAISRNGGSTNYADSVKGRFTISRDNAKNTVYFQMNSLKPEDTAVYYCAAVGTVSRTVGYNYWGQGTQVTVSS | high polyreactivity
QVQLVESAGGLVQAGGSLRLSCAASGRTFTCNAMGWYRQAPGKERELVAAISYSGGSTYYADSVKGRFTISRDNAKNTVYLQMNSLKPEDTAVYNCAVLGTPYGLNDYWGQGTQVTVSS | high polyreactivity
QVQLVESGGGLVQAGGSLRLSCAASGFTFHGYTMGWYRQAPGKERELVAAITSGGGTNYADSVKGRFTISRVNAKNTVYLQKNSLKPEDTAVYYCAAVGTVPRKQRYHSYIDYDYWGQGTQVTVSS | low polyreactivity
QVQLVESGGGLVQAGGSLRLSCAASGLTFVKNAMGWYRQAPGKERELVATISSGGSTNYADSVKGRFTISRDNAKNTVYLQMNSLKPEDTAVYYCNKDYTGVLLWIWWDRYDYWGQATQVTVSS | high polyreactivity
QVQLVESGGGLVQAGGSLRLSCAASGRIFGYYAMGWYRQAPGKERELVAAIDGSGGTTYYADSVKGRITISRDNAKNSVYLQMNSLKPEATAVYYCAARGYNSKYGYWGQGTQVTVSS | high polyreactivity
QVQLVESGGGLVQAGGSLRLSCSASGSTFVVYAMGWSRQAPGKERELVAAISESGSSTYYADSVKGRFTISRDNAKNTVYLQMNSLKPEDTAVYYCNALYYDWHPEYQVIFSDFYYWGQGTQVTVSS | low polyreactivity
QVQLVESGGGLVQAGGSLRLSCAASGRIFGGYAMGWYRQAPGKEWEVVAAIRDSGRTYYADSVKGRFTISRDNAKNTVYLQMNSLKPEDTAVYYCAADAHSSYSPFRWYDYWGQGTQVTVSS | low polyreactivity
QVQLVESGGGLVQAGGSLRLSCAASGLTFQYNTMGWYRQAPGKERELVARINWGGDSTYYADSVKGRFTISRDNAKNTVYLQMNSLTPEDTAVYYCAAPGYSGRYGYYTYYLYDYWGQGTQVTVSS | low polyreactivity
QVQLVESGGGLVQAGGSLRLSCAASGFTFAVYAMGWYRQAPGKERELVAAISRSGTRTYYADSVKGRFTISRDNAKNTVYLQMNSMKPEDTAVYYCAADKYRHGYDYWGQGTQVTVSS | low polyreactivity
QVQLVESGGGLVQAGGSLRLSCAASGSTSHYNAMGWYRQAPGKERELVASITWSGGSTYYADSVKGRFTISRDNAKNTVYLQMYSLKPEDTAVYYCNAQERRVRDYDYWGQGTQVTVSS | low polyreactivity
QVQLVESGGGLVQAGGSLRLSCAASGRTFKKYAMGWYRQAPGKERELVAAITGSGGSTYYADSVKGRFTISRDNAKNTVYLQMNILTPEDTAVYYCAAYAYGVWHSQDGGNYWGQCTQVTVSS | low polyreactivity
QVQLVESGGGLVQAGGSLRLSCAATGRTFGYSPMGSYRPAPGKERELVAAISRRGGSTYYADSVKGRFIISRDNAKNTVYLQMNSLKPEDTAVYYCAKGHQWGLKGGYDYWGQGTQVTVSS | high polyreactivity
QVQLQESGGGLVQAGGSLRLSCAASGSISSRDAMGWYRQAPGKEREFVATIASGTTTYYADSVKGSFTISRDNAENTVYLQTNSLKPEDTAVYYCAAPTIQIYPFYYWGQGTQVTVSS | high polyreactivity
QVQLVESGGGLVQAGGSRRLSCAASGSISVGFTMGWYRQAPGKEWEFVAVITGTGGRTRYADSVKGRFTISRDNAKNTVYLQMNSLKPEDTAVYYCAAKIRWRGALYDYWGQGSQVTVSS | high polyreactivity

Sequence | polyreactivity (PSR sort gate)
QVQLQESGGGLVQAGGSLRLSCAASGSIFEELDMGWYRQAPGKEREFVAANGTGSTTYYADSVKGRFTISRDNAKNTVYLQMNSLKPEVTAVYYCAVTYSVYLPFRYWGQGTQVTVSS | high polyreactivity
QVQRVESGGGLVQAGGSLRLSCAASGRIFLTNARGWYRQAPGKERELVPAITSGGSTYYADSVKGRFTISRDNAKNTVYLQMNSLKPEDTAVYYCNDDTDRYWPYEYDYWGQGTQVTVSS | low polyreactivity
QVQLVESGGGLVQAGGSLRLSCAASGSTFVPYTMGWYRQAPGKERELVAAISGSGGTDYADSVKGRFTISRDNAKNTVYLQMNSLKPEDTAVYYCATDGLDFWFIYDYWGQGTHVTVSS | low polyreactivity
QVQLVESGGGLVQAGGSLRLSCAASGRIFYYYAMGWYRQAPGKERELVAAITWNGTSTYYADSVKGRFTISRDNAKNTVYLQMNSLKPEDTAVYYCAAEGWVGAWWYVLDVRYDYWGQGTQVTVSS | low polyreactivity
QVQLVESGGGLVQAGGSLRLSCAASGSTFSSYAMGWYIQAPGKERELVAAITSSGGTTYYSDSVKGRFTISRDNAKNTVYLQMNSLKPEDTAVYYCAAADVIFWLYYYWGQGTQVTVSS | low polyreactivity
QVQLVESVGGLVQAGGSLRLSCAASGSIFVTNALGWYRQAPGKERELVAAISSGGNTNYADSVKGRFTISRDNAKNTVYLQMNSLKPEDTAVYDCAKDPDKVDYVDMDYWGQGTQVTVSS | low polyreactivity
QVQLVESGGCLVQARGSLRLSCAASGSTFTYNTMGWYRQAPGKESELVAGITKSGGSTYYADSVKGRFTISRDKAKNTVYLQMNSLKPEDTAVYYCATSTSRRYGSRHNYWGQGTQVTVSS | high polyreactivity
QVQLVETGGGLFQAGGSLRLSCAASGFIYSYAMGWYRQAPGKERELDAAISRSGGSTYYADSVKGRFTISRDNAKNTVYLQMNSLKPEDTAVYYCAARPNSNRYVRYGYWGQGTQVTVSS | high polyreactivity
QVQLVESGGGLVQAGGSLRLSCAASGSTFARYAMGWYRQAPGKERELVAAISKGGDRTYYADSVKGRFTISRDNAKNTVYLQMNSLKPEDTAVYYCAARYTPRRYYYWGQGTQVTVSS | high polyreactivity
QVQLVESGGGLVQAGGSLRLTCAASGSTFIRYTMVWYRQAPGKEREFVATITWSTGTTYYADSVKGRFTISRDNAKYSVYLQMNSLKPEDTAVYYCAAVYYYYTGITYDYWGQGTQVTVSS | high polyreactivity
QVQHVESAGGLVQAGGSLRLSCAASGSIFPYNAMGWYRQAPGKERELVAAISYSGSTTYYADSVKRRFTISRDNSKNTVYLQMNSLKPEDTAVYYCNTLSWYQYDYWGQGTQVTVSS | high polyreactivity
QVQLVESGGGLVQAGGSLRLRCAASGSTFYRYALGWYRQAPGKERELVAVITSGGGTYSADSVKGRFSISRDNAKNTVYLQLNSRKPEDTAVYDCAARYLRTRNYQYDYWGQGTQVTVSS | high polyreactivity
QVQLVESGGGLVQAGGSLRLSCAASGPTFSQNVMGWYRQAPGKERELVAGISSGDITDYADSVKGRFTISRDNAKNTVYLQMNSPKPEDTAVYYCTYYGKSGGYRYTYYYWGQGTQVTVSS | high polyreactivity
QDQLVESGGGLVQAGGSLRLSCAASGRTFDDYAMGWYRQAPGKERELVAAISSSGGSTYYADSVKGRFSISRDNAKNTVYLQMNCLKPDDTAVYYCAADYDWGYWYDYWGQGTQVTVSS | low polyreactivity
QVQLVESGGGLVQAGGSLRLSCAASGSIYITYAMGWYRQAPGKERELVAAIRDSGDRTYYADSVKGRFTISRDNAKNTVYLQMNSLKPEDTAVYYCNARWQEPLKYDYWGQGTQVTVSS | low polyreactivity
QVQLVESGGGLVQAGGSLRLSCAASGFIFRKYAMGWYRQAPGKERELVAAITSSGGSTYYADSVKGRFTISRDNAKNTVYLQMNSLKPEDTAVYYCAARLKQSGHDYWGQGTQVTVSS | high polyreactivity
QVQLVESGGGLVQAGGSLRLSCAASGITFYIYAMGWYRQAPGKERELVATISWSDGRTYYADSVKGRFTISRDNAKNTVYLQINSLKPEDTAVYYCAADWWYYQFDYEYWGQGTQVTVSS | low polyreactivity
QGQLVESGPVLVQAGCSLRLSSAASGYTFGWYAMGWYRQAPGKLRELVAGISSAGSTNYADSVNGRFTISRDNANINVYLQMNSLKPEDTAVYYCAAEVRYWFLADDYWGQGTQVTVSS | high polyreactivity
QVQLVESGGGLVQAGGSLRLSCAATGFTFVYYAMGWYRPAPGKERELVAAISSSGTRTYYADSVKGRFTISRDNAKNTVYLQMNSLKPEDTAVYFCAARNTYRTKVDYWGQGTQVTVSS | high polyreactivity
QVQLVESGGGLVQAGGSLRLSCAASGSTVWKYVMGWYRQAPGKERELVAAISNSGVNTYYADSVKGRFTISRDNAKNTVYLQMNSLKTEDTAVYYCAADRGGYEYWGQGTQVTVSS | high polyreactivity
